Data: publication PMC4310740

Tests used:
[1] = molecular target: Alexa 594-labeled N-WASP VCA (S430C) (UniProt O00401); test: fluorescence polarisation
[2] = molecular target: G-actin (rabbit muscle actin monomers) (rabbit) (UniProt P68135); test: fluorescence polarisation

Sequence of Alexa 594-labeled N-WASP VCA (S430C) (O00401 whole entry S430C): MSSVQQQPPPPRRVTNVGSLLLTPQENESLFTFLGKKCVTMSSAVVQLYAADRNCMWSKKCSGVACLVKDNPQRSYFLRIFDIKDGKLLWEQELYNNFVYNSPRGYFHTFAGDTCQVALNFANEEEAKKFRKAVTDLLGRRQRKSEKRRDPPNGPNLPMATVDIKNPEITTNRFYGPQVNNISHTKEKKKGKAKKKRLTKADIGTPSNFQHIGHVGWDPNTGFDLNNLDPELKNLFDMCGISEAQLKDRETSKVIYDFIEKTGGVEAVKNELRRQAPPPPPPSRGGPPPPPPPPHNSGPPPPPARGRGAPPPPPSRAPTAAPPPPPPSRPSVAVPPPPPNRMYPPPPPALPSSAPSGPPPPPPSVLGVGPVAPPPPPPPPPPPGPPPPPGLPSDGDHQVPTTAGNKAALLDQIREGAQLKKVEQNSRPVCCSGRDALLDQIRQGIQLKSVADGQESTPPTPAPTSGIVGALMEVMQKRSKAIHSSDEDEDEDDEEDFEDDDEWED

Substance	Kd [1] [nM]	fold reduction of affinity against wild-type WAVE1 GST-VCA [2] [fold]
G-actin (rabbit muscle actin monomers) (from UniProt P68135 1-377) (natural protein)	106	
human WAVE1 GST-VCA K507Q (from UniProt Q92558 1-559) (domain or fragment)		< 2
